Measured values from patent US20100240066A1 (MCGILL UNIVERSITY, published 2010).
Where no end group is shown, it is not given here.

T1: N-cadherin/Fc chimeric protein (human, UniProt P19022 160-724)
T1 construct: range 160-724; Bought from R&D Systems; also called N-cad/Fc; human N-cadherin/Fc chimeric protein; not shown: Fc region of human IgG1
T1 sequence (looked up): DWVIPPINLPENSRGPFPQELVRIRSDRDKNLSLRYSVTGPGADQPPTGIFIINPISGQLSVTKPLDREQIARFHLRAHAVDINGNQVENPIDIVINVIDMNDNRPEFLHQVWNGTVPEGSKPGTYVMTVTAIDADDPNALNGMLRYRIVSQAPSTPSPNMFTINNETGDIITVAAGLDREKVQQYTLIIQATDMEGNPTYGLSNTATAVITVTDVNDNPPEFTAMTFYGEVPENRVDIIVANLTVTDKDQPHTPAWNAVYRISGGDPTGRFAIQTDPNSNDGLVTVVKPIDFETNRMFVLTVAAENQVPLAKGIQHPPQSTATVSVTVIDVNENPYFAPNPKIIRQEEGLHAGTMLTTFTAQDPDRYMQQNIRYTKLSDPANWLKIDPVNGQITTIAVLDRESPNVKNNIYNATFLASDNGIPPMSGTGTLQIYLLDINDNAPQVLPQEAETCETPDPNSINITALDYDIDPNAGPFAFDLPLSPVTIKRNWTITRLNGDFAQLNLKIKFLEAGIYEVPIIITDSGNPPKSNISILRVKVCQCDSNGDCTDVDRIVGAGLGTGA

T2: E-cadherin/Fc chimeric protein (human, UniProt P12830 155-707)
T2 construct: range 155-707; Bought from R&D Systems; also called E-cad/Fc; human E-cadherin/Fc chimeric protein; not shown: Fc region of human IgG1
T2 sequence (looked up): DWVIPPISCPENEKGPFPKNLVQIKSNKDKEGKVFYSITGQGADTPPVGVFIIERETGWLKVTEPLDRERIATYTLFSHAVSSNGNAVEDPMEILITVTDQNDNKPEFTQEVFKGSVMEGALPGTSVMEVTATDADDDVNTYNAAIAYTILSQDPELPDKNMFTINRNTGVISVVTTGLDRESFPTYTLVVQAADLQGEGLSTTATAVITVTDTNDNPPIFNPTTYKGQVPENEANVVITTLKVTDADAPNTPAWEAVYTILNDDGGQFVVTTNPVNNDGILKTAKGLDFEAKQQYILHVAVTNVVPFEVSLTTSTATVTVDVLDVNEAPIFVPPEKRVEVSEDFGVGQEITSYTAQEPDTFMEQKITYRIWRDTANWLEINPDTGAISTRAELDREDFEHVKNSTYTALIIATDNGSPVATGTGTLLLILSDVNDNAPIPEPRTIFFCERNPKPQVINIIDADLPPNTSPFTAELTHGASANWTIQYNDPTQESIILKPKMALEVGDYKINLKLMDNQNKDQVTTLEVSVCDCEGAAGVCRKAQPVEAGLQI

T3: VE-cadherin/Fc chimeric protein (UniProt P33151 48-593)
T3 construct: Bought from R&D Systems; also called vascular endothelial (VE)-cadherin/Fc chimeric protein; not shown: Fc part not described
T3 sequence (looked up): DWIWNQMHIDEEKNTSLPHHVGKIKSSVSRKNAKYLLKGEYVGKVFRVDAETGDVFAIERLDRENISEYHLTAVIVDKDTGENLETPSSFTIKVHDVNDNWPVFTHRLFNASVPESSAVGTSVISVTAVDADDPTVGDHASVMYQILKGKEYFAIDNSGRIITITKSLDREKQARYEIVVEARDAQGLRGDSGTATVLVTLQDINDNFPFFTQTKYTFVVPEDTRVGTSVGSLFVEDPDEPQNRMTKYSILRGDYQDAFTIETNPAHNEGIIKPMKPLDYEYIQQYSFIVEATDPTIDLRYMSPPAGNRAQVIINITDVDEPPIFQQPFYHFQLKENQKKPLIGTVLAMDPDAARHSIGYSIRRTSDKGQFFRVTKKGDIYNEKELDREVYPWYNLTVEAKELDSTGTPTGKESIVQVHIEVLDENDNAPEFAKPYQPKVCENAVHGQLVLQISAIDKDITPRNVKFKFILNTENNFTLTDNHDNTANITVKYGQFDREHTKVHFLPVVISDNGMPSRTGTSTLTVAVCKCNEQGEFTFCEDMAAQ


Legend:
[1] = biological target: T1, N-cadherin/Fc chimeric protein; assay: phage ELISA, 1.2 mM calcium
Description: (§1) The binding of each clone to the cadherin/Fc chimeric proteins was confirmed by ELISA. Wells of ProBind microtiter plates (Falcon) were coated with either N-cadherin/Fc or E-cadherin/Fc chimeric protein (100 ng/well) or human IgG1 (which contains the Fc fragment) (100 ng/well). After blocking the nonspecific sites with TBS containing 3% BSA and 1.2 mM CaCl₂ for 1 h at 37° C., phage clones (10⁹ pfu) diluted in TBST containing 3% BSA and 1.2 mM CaCl₂ (100 μl/well). Non-coated wells were also used to exclude any phage that bound to the plastic surface. After 1 h incubation at room temperature, wells were washed 3 times with TBST containing 3% BSA and 1.2 mM CaCl₂. M13 phage without any insert were used to control the non-specific binding of the phage itself to the target. Monoclonal anti-M13 antibody conjugated to horseradish peroxidase (Amersham Biosciences, Piscataway, N.J.) was diluted in TBST containing 3% BSA and 1.2 mM CaCl₂ (1:2,000) and added to each well (100 μl/well). After 1 h incubation at room temperature, wells were washed three times with TBST containing 3% BSA and 1.2 mM CaCl₂ and once with TBS containing 1.2 mM CaCl₂. Horseradish peroxidase substrate, TMB (Sigma), was added to each well (100 μl/well and after color development the reaction was stopped by addition of 100 μl 0.5 M sulphuric acid to each well. The intensity of the color was measured at 450 nm.
An ELISA was performed in the presence of either 1.2 mM calcium or 2 mM EDTA. […] The signal obtained in the presence of EDTA was lower than in the presence of calcium.

[2] = biological target: T2, E-cadherin/Fc chimeric protein; assay: phage ELISA
Description: (§2) The phage clones shown to bind to the N-cadherin/Fc chimeric protein by ELISA were also evaluated for their ability to bind to E-cadherin/Fc and VE-cadherin/Fc chimeric proteins. The phage clones shown to bind to the E-cadherin/Fc chimeric protein by ELISA were also evaluated for their ability to bind to N-cadherin/Fc and VE-cadherin/Fc chimeric proteins. The same ELISA protocol described in the previous section was used to perform this evaluation with the exception that the wells were coated with either 100 ng N-cadherin/Fc, E-cadherin/Fc or VE-cadherin/Fc chimeric protein (R&D Systems, Minneapolis, Minn.).

[3] = biological target: T3, VE-cadherin/Fc chimeric protein; assay: phage ELISA
Description: as §2

[4] = biological target: T2, E-cadherin/Fc chimeric protein; assay: phage ELISA, in the absence or presence of calcium
Description: as §2

[5] = biological target: T3, VE-cadherin/Fc chimeric protein; assay: phage ELISA, in the absence or presence of calcium
Description: as §2

[6] = biological target: T1, N-cadherin/Fc chimeric protein; assay: phage ELISA, 1.2 mM calcium; remark: listed apart in the source
Description: as §1

[7] = biological target: T1, N-cadherin/Fc chimeric protein; assay: summary table, column Peptide Binds to N-cad/Fc; assay not named
[8] = biological target: T3, VE-cadherin/Fc chimeric protein; assay: surface plasmon resonance (Biacore), chimera captured by anti-human IgG
Description: The binding of representative peptide modulating agents to either N- or VE-cadherin/Fc chimeric proteins was assessed using a BIAcore X™ Biosensor (Pharmacia Ltd., Sweden). Goat anti-human IgG recognizing N- and VE-cadherin/Fc chimeric proteins (R&D Systems, Minneapolis, Minn.) was immobilized on a CM5 sensor chip (Biacore S51) using standard amine-coupling method at 25° C. HBS-P buffer (10 mM HEPES, 0.15 M NaCl, 0.005% p20, pH 7.4) was used as the running buffer. The carboxymethyl dextran surface was activated with a 7 min injection of a 1:1 ratio of 0.4 M EDC and 0.1 M NHS. The goat anti-human IgG (Caltag Lab.) was coupled to the surface with a 7 min injection diluted in 10 mM sodium acetate, pH 5.0 to a final concentration 80 ug/ml. Remaining activated groups were blocked with a 7 min injection of 1 M ethanolamine, pH 8.5. N- and VE-cadherin/Fc chimeric proteins were dissolved in buffer containing 50 mM Tris HCl, 150 mM NaCl, and 1.2 mM CaCl₂ pH 7.5 to a concentration of 0.2 μM and captured on spots 1 and 2 at a flow rate of 30 μl/min for 30 min with resulting density 927 RU for N-cadherin/Fc chimeric protein and 1008 RU for VE-cadherin/Fc chimeric protein. […]
(§3) The binding of the linear peptide H-[…]-NH₂ (SEQ ID NO: 16) to N- and VE-cadherin/Fc chimeric proteins was analyzed by surface plasma resonance.

[9] = biological target: T2, E-cadherin/Fc chimeric protein; assay: summary table, column Peptide Binds to E-cad/Fc; assay not named
[10] = biological target: T1, N-cadherin/Fc chimeric protein; assay: surface plasmon resonance (Biacore), N-cadherin/Fc captured by anti-human IgG, peptide as analyte, 1.2 mM CaCl2, 25 C
Description: The binding of representative peptide modulating agents to either N- or VE-cadherin/Fc chimeric proteins was assessed using a BIAcore X™ Biosensor (Pharmacia Ltd., Sweden). Goat anti-human IgG recognizing N- and VE-cadherin/Fc chimeric proteins (R&D Systems, Minneapolis, Minn.) was immobilized on a CM5 sensor chip (Biacore S51) using standard amine-coupling method at 25° C. HBS-P buffer (10 mM HEPES, 0.15 M NaCl, 0.005% p20, pH 7.4) was used as the running buffer. The carboxymethyl dextran surface was activated with a 7 min injection of a 1:1 ratio of 0.4 M EDC and 0.1 M NHS. The goat anti-human IgG (Caltag Lab.) was coupled to the surface with a 7 min injection diluted in 10 mM sodium acetate, pH 5.0 to a final concentration 80 ug/ml. Remaining activated groups were blocked with a 7 min injection of 1 M ethanolamine, pH 8.5. N- and VE-cadherin/Fc chimeric proteins were dissolved in buffer containing 50 mM Tris HCl, 150 mM NaCl, and 1.2 mM CaCl₂ pH 7.5 to a concentration of 0.2 μM and captured on spots 1 and 2 at a flow rate of 30 μl/min for 30 min with resulting density 927 RU for N-cadherin/Fc chimeric protein and 1008 RU for VE-cadherin/Fc chimeric protein.
The linear peptide H-[…]-NH₂ (SEQ ID NO: 16) and the control linear peptide H-[…]-NH₂ (SEQ ID NO: 58) were passed over surfaces coated with captured N- and VE-cadherin/Fc chimeric proteins in running buffer containing 50 mM Tris-HCl, 150 mM NaCl, and 1.2 mM CaCl₂, pH 7.5 at concentrations ranging from 100-1.56 uM. The experiment was performed at a flow rate 90 ul/min at 25° C. […] All responses were referenced for reference surface and blank injections of running buffer.
as §3

Binder | binding result [1] | binding result [2] | binding result [3] | further results
KWELTYFANSFP (whole phage in the assay) [phage clone Nc 12-a3] | binds | no binding (tested: 10^9 pfu) | no binding (tested: 10^9 pfu) | 
WYVCVGAHC (not fully specified; cysteine pairing not given here; also: displayed on M13 phage pIII, whole phage in the assay) [phage clone NoCa1] |  |  |  | binding result [4]: no binding (tested: 10^9 pfu); binding result [5]: no binding (tested: 10^9 pfu); binding result [6]: binds
WQVCVGAHC (not fully specified; cysteine pairing not given here; also: displayed on M13 phage pIII, whole phage in the assay) [phage clone NoCa11] |  |  |  | binding result [4]: no binding (tested: 10^9 pfu); binding result [5]: no binding (tested: 10^9 pfu); binding result [6]: binds
NWFIDFPVYPPL (whole phage in the assay) [phage clone Nc 12-a1] | binds | no binding (tested: 10^9 pfu) | no binding (tested: 10^9 pfu) | 
H-SRTLYTPSGQSK-NH2 [H-SRTLYTPSGQSK-NH2] |  |  |  | binding result [7]: no binding; binding result [8]: no binding (tested: 100-1.56 uM)
EWMIHYDSALTS (not fully specified, whole phage in the assay) [phage clone Nc 12-a6] | binds | binds | no binding (tested: 10^9 pfu) | 
SWLAVWPATGAS (whole phage in the assay) [phage clone Nc 12-a10] | binds | binds | no binding (tested: 10^9 pfu) | 
AWQVHYSYVASS (whole phage in the assay) [phage clone Nc 12-a7] | binds | binds | no binding (tested: 10^9 pfu) | 
H-SWTLYTPSGQSK-NH2 (Synthetic linear peptide) [H-SWTLYTPSGQSK-NH2] |  |  |  | binding result [9]: no binding; Kd [10]: 66 µM; koff [10]: 0.407 s⁻¹; kon [10]: 6100 M⁻¹ s⁻¹; binding result [8]: no binding (tested: 100-1.56 uM)
